Measured values reported in article PMC11901735.

Key:
[1] = biological target: GLP-1R of mouse pancreatic β-cells (mouse (endogenous in ddY mouse pancreas)) (UniProt O35659)
[2] = biological target: Recombinant human GLP-1R protein (human) (UniProt P43220); test: SPR; Biacore T200; recombinant human GLP-1R (0.5 μM) immobilized on a CM5 sensor chip; peptides injected at four-fold serial dilutions (0, 0.1-100 nM); n = 3; 1:1 interaction model
Sequence of Recombinant human GLP-1R protein (human) (P43220 24-463): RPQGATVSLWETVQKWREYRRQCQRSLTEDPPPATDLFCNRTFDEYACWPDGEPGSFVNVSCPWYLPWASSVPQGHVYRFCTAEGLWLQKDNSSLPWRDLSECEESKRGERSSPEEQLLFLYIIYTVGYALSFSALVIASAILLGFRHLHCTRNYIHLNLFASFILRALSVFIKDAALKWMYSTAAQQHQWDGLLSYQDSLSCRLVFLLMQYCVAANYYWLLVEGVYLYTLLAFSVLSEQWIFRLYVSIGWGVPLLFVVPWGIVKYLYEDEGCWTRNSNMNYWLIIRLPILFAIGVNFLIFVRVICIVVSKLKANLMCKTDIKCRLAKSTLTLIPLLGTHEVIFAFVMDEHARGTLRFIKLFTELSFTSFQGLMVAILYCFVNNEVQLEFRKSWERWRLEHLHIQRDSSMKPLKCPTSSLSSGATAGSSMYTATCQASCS

Sequence of GLP-1R of mouse pancreatic β-cells (mouse (endogenous in ddY mouse pancreas)) (O35659 22-463): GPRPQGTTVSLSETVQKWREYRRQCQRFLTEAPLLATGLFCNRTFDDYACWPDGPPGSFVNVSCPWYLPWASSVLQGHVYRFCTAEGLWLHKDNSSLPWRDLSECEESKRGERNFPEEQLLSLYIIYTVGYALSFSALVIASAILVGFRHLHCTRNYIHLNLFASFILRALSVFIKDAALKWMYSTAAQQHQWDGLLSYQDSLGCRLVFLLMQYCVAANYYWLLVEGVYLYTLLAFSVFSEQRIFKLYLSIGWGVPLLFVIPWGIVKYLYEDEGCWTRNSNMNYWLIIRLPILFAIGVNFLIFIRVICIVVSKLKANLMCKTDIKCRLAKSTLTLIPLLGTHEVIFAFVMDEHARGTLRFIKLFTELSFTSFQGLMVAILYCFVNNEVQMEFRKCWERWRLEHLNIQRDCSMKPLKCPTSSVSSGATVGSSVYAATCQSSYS

In the case of “I-Ex-4, Ex-4-C40 labeled with IPM at the additional C-terminal Cys (peptide)”, the radioactivity in the pancreas 5-120 min after i.v. administration of [^125I]I-Ex-4 to mice (highest at 60 min) (% injected dose per gram tissue) [1] is reported as 11.3 and the Kd [2] is reported as 28.1 nM.
